# T1: SGK (SGK1) Serum/glucocorticoid regulated kinase (human (printed as (h)), UniProt O00141 60-431, limits assumed)
# T1 sequence (looked up): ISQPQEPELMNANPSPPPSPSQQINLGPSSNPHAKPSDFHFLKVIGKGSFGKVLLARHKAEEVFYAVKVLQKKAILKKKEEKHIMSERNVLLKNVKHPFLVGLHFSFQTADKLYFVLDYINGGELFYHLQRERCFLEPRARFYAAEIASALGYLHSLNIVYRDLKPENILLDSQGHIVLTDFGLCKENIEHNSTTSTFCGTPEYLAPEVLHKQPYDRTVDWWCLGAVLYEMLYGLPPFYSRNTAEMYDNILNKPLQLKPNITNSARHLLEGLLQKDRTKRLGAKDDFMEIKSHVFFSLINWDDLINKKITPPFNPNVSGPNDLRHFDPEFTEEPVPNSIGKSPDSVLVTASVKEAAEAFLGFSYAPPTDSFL
# T2: NEK2 (UniProt P51955 1-445, limits assumed)
# T2 sequence (looked up): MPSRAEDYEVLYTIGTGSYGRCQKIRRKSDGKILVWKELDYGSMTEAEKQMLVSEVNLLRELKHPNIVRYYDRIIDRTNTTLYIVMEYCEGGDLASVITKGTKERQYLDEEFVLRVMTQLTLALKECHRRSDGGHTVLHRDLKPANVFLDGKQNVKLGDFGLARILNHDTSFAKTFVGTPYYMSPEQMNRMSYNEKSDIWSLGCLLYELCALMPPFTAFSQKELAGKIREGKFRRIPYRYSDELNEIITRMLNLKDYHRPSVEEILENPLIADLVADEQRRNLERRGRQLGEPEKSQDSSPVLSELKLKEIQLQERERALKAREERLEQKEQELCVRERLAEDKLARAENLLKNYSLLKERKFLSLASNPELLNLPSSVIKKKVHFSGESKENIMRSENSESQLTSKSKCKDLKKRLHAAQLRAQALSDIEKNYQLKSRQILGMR
# T3: NEK1 NIMA (never in mitosis gene a)-related kinase 1 (UniProt Q96PY6 1-505, limits assumed)
# T3 sequence (looked up): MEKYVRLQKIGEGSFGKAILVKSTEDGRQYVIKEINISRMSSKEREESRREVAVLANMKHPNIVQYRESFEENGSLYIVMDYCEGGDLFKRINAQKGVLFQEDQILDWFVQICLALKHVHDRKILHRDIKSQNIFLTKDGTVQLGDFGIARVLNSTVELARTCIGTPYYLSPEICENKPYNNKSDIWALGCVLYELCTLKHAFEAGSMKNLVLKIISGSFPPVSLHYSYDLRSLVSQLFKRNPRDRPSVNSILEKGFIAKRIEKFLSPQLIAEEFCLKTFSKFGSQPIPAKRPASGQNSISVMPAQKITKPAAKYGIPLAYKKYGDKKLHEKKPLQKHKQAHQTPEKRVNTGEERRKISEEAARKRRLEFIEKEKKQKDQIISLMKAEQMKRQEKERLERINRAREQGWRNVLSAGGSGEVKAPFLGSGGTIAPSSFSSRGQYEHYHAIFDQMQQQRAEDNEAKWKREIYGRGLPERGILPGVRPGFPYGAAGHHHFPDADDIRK
# T4: SGK2 Serum/glucocorticoid regulated kinase 2 (UniProt Q9HBY8 1-367, limits assumed)
# T4 sequence (looked up): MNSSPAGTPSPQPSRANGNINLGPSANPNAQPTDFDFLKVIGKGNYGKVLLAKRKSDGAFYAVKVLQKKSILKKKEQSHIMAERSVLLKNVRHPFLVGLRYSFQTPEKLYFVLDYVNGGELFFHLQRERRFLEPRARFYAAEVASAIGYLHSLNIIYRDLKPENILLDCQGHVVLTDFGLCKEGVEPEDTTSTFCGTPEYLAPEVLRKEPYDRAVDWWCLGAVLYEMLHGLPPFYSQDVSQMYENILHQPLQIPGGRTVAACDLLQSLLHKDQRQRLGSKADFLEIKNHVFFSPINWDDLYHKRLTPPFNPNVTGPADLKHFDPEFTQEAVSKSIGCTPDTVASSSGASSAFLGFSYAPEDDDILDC
# Columns and labels:
# Test in all cases: cell-based or functional assay
# GSK3β(h) = GSK3β(h) (human (printed as (h)), UniProt P49841 1-420, limits assumed)
# [1] = biological target: T1, SGK (SGK1) Serum/glucocorticoid …
# MAPK1(h) = MAPK1(h) (human (printed as (h)), UniProt P28482 1-360, limits assumed)
# [2] = biological target: MAPK10 (JNK3) Mitogen-activated protein kinase 10 (UniProt P53779 1-464, limits assumed)
# NEK2 = biological target: T2, NEK2
# PRKCD (PKC delta) = PRKCD (PKC delta) (UniProt Q05655 1-676, limits assumed)
# [3] = biological target: T3, NEK1 NIMA (never in mitosis gene …)
# [4] = biological target: BRAF V-raf murine sarcoma viral oncogene homolog B1 (UniProt P15056 416-766, limits assumed)
# MAPKAPK3 = MAPKAPK3 (UniProt Q16644 1-382, limits assumed)
# [5] = biological target: RPS6KA1 (RSK1) Ribosomal protein S6 kinase, 90 kDa, polypeptide 1 (UniProt Q15418 1-735, limits assumed)
# CHEK2 (CHK2) = CHEK2 (CHK2) (UniProt O96017 1-543, limits assumed)
# PRKCQ (PKC theta) = PRKCQ (PKC theta) (UniProt Q04759 1-706, limits assumed)
# [6] = biological target: SYK Spleen tyrosine kinase (UniProt P43405 1-635, limits assumed)
# [7] = biological target: T4, SGK2 Serum/glucocorticoid regulated …
# NEK7 = NEK7 (UniProt Q8TDX7 1-302, limits assumed)
# PRKCH (PKC eta) = PRKCH (PKC eta) (UniProt P24723 1-683, limits assumed)
# ABL1 G250E = ABL1 G250E (UniProt P00519 1-1130, limits assumed)
# ABL1 G250E, sequence (P00519 whole entry G250E): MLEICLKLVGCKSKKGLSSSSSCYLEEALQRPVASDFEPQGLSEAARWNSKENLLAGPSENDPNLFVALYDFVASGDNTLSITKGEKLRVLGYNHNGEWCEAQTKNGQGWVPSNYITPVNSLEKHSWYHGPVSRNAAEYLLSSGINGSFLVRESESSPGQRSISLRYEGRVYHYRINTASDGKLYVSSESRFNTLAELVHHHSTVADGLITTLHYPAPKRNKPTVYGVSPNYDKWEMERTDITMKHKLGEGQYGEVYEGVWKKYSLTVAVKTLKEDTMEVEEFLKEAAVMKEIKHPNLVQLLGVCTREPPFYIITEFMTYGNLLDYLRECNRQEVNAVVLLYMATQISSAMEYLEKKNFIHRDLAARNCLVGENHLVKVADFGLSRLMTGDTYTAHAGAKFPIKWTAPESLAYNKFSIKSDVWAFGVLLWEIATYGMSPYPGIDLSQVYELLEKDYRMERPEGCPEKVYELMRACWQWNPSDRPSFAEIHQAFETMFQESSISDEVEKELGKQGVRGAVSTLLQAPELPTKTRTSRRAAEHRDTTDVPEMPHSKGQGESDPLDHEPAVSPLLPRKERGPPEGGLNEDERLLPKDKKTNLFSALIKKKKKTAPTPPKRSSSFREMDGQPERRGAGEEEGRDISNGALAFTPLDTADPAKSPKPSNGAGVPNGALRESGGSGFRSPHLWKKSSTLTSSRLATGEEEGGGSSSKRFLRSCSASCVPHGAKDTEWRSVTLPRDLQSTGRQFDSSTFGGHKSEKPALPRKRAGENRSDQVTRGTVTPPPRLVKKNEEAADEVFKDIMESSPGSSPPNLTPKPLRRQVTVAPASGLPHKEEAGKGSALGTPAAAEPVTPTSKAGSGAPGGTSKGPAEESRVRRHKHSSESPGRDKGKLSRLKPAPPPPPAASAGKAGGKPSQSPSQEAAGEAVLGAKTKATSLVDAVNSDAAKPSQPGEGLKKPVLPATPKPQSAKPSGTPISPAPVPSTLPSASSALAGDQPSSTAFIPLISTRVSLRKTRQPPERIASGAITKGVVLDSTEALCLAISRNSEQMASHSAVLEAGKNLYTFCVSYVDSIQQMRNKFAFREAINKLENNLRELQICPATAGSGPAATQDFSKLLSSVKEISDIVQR
# GSK3β(h) (human (printed as (h)), UniProt P49841 1-420, limits assumed), sequence (P49841 whole entry): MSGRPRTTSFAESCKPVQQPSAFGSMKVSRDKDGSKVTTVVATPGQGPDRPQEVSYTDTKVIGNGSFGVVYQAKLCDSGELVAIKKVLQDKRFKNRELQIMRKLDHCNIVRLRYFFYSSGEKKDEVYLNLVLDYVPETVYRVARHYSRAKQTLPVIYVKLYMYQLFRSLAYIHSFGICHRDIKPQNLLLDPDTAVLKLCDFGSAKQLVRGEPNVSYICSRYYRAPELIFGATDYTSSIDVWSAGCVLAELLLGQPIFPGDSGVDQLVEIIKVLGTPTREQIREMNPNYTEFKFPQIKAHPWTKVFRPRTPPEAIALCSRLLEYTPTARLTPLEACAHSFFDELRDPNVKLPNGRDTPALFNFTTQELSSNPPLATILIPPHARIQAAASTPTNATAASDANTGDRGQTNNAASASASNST
# MAPK1(h) (human (printed as (h)), UniProt P28482 1-360, limits assumed), sequence (P28482 whole entry): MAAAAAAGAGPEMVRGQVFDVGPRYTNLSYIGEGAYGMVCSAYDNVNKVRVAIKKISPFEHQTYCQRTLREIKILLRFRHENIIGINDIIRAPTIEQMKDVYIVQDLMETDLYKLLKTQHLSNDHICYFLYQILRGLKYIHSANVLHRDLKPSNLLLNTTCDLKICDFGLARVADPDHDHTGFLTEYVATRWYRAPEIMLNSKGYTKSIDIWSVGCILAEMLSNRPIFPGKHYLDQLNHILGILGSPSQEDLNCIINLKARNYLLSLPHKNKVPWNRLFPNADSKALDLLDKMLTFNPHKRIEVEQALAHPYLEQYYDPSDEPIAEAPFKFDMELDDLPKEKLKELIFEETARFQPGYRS
# MAPK10 (JNK3) Mitogen-activated protein kinase 10, sequence (P53779 whole entry): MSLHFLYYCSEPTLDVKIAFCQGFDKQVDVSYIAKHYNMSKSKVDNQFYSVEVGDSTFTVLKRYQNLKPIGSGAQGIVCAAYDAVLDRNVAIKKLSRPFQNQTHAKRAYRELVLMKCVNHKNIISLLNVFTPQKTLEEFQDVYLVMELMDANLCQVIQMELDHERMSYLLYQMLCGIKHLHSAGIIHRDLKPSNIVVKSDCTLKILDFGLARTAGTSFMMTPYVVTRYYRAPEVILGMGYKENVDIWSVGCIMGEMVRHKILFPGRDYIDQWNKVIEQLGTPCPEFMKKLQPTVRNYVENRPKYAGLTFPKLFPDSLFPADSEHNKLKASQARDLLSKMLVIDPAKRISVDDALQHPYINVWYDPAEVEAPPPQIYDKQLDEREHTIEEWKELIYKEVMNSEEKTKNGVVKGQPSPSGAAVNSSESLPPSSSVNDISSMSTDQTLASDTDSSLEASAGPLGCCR
# PRKCD (PKC delta), sequence (Q05655 whole entry, stated change not applied): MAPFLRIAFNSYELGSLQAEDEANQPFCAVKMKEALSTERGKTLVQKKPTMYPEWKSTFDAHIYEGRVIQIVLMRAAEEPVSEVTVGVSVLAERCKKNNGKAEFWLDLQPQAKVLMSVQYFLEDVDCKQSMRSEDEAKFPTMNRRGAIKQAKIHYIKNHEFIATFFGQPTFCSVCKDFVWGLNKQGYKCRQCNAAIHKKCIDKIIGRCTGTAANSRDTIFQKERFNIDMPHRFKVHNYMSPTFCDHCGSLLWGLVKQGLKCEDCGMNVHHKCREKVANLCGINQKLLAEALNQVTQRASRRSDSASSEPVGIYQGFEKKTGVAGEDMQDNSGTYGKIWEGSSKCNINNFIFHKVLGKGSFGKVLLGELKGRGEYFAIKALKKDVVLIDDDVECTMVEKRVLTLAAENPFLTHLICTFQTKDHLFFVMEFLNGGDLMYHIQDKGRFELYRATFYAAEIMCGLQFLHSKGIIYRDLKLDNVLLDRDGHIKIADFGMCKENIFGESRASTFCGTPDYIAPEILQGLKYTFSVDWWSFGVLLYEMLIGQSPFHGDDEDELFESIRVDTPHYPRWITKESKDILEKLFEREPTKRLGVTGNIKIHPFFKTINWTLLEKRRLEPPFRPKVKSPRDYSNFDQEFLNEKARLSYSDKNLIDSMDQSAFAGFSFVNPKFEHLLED
# BRAF V-raf murine sarcoma viral oncogene homolog B1, sequence (P15056 416-766 limits assumed): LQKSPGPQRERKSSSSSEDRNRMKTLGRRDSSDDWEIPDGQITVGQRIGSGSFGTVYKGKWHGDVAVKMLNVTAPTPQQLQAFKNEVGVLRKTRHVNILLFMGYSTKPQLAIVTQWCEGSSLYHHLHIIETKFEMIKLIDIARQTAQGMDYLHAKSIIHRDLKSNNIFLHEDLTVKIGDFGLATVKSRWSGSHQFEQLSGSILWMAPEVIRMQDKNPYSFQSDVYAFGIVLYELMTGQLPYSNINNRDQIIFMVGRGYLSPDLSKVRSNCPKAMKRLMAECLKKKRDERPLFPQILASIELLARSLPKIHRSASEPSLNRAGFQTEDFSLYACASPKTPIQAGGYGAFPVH
# CHEK2 (CHK2), sequence (O96017 whole entry): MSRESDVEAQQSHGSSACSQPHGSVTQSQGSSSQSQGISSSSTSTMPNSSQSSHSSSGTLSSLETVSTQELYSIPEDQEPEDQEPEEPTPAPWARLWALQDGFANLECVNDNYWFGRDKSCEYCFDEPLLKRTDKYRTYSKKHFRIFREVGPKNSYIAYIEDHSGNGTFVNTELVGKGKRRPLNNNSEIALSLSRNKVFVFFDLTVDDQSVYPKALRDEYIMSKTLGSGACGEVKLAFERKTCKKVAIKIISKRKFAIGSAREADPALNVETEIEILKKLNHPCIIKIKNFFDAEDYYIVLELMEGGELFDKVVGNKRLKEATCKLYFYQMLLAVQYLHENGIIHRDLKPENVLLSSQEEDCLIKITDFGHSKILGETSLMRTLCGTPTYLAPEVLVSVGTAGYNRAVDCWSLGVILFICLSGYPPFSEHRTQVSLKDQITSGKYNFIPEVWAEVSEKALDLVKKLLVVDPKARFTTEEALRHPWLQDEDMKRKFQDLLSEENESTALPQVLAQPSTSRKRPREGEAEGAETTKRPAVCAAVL
# PRKCH (PKC eta), sequence (P24723 whole entry): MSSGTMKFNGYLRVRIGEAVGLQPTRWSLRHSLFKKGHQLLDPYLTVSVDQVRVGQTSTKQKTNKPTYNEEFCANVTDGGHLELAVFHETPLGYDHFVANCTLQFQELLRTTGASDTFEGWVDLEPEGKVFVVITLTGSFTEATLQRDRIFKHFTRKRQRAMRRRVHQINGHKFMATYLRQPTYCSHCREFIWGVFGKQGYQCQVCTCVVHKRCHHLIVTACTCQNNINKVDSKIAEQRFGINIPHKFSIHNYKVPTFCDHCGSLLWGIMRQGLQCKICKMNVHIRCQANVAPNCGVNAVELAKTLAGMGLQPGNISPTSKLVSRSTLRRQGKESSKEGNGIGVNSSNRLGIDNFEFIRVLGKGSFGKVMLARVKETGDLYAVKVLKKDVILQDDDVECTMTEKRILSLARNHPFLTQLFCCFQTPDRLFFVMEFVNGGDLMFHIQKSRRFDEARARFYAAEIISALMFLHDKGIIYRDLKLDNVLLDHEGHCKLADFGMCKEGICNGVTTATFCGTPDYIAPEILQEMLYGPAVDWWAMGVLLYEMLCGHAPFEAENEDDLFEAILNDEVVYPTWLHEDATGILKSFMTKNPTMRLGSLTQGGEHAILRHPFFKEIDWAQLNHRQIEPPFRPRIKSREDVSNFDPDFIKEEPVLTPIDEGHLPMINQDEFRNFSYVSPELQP
# MAPKAPK3, sequence (Q16644 whole entry): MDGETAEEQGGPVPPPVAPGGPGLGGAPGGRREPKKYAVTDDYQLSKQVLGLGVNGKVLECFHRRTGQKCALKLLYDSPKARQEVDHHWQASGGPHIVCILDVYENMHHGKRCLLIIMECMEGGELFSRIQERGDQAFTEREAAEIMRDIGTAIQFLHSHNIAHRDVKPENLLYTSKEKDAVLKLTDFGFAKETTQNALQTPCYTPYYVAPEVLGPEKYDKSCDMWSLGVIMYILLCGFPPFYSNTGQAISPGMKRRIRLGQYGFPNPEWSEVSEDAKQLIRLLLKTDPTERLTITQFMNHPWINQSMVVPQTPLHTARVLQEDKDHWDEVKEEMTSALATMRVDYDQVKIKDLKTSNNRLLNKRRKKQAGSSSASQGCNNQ
binder,measurement,setting,value
SGRPPMIVWFNRPFLIAVSHTHGQTILFMAKVINPVGA [D3 peptide],D3 at 0.1 µM % activity,GSK3β(h),101%
same,D3 at 1 µm % activity,GSK3β(h),100%
same,D3 at 0.1 µM % activity,[1],74%
same,D3 at 1 µm % activity,[1],5%
same,IC50,[1],325 nM
same,D3 at 0.1 µM % activity,MAPK1(h),86%
same,D3 at 1 µm % activity,MAPK1(h),92%
same,% Inhibition mean,[2],90.7%
same,% Inhibition mean,NEK2,89.6%
same,% Inhibition mean,PRKCD (PKC delta),57.4%
same,% Inhibition mean,[3],84%
same,% Inhibition mean,[4],100%
same,% Inhibition mean,MAPKAPK3,64.1%
same,% Inhibition mean,[5],98.3%
same,% Inhibition mean,CHEK2 (CHK2),62.1%
same,% Inhibition mean,PRKCQ (PKC theta),86.3%
same,% Inhibition mean,[6],54%
same,% Inhibition mean,[7],102%
same,% Inhibition mean,NEK7,73.8%
same,% Inhibition mean,PRKCH (PKC eta),46.5%
same,% Inhibition mean,ABL1 G250E,50.7%
